Measurements taken from PMC4100735.

Target: TNF receptor-associated factor 2 (TRAF2) (human (endogenous in HEK-293T)) (UniProt Q12933)
Experiment: co-IP; lysates of HEK-293T cells transfected with Tyr52 or Cys52 FBXO7-EGFP and treated with MG-132 (5 uM, 24 h); 100 ug protein immunoprecipitated with mouse anti-TRAF2 antibody on protein G beads in IP lysis buffer (25 mM Tris-HCl pH 7.4, 150 mM NaCl, 1% NP-40, 1 mM EDTA, 5% glycerol); blot with anti-EGFP; normal IgG as negative control

Sequence of UniProt Q12933 (Q12933 whole entry): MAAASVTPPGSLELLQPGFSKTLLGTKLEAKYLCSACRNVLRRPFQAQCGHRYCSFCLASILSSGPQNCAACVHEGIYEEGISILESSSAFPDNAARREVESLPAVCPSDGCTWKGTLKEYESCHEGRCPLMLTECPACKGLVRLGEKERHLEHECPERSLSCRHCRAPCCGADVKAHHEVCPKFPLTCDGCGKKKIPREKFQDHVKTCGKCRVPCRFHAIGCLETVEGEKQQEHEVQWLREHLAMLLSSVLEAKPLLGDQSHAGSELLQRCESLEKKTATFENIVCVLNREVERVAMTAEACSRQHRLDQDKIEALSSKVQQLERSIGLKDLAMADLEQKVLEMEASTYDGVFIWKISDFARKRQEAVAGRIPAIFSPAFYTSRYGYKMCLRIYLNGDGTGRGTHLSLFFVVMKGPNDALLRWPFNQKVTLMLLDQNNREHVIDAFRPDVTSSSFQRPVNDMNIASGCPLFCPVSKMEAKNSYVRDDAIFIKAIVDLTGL

Cys52 FBXO7-EGFP (F-box only protein 7 Y52C variant, isoform 1, EGFP-tagged) (from UniProt Q9Y3I1-1 1-522) (natural protein)
FBXO7-TRAF2 interaction in co-IP, percent of Tyr52 FBXO7-EGFP: 367%
